According to article PMC11257983 (2024):

B1: Flag-CNK^2–549 [Drosophila] / GST-HYP [Drosophila] (parent complex)
chain 1: AYINIAEWTPDQVTDWIKGLDESMKGYLYEFSKQEIGGRALLNIRPYELENLGMLRIGHQEIVLEAVENLRNFHYHLKNDNLQFMALHVATAAKNLHRELARNHAESTKIDTRILHDITRTIATLKPLVGSLERTPFRKQEMYREYCGNVLKCGLELATIAHRDRFALQPVPAIRQSAERLENLANFVIQDISDPMVLQPASLNLVTLKKRESELGFNIESSYNGIHRVTDIKYNSPAHNSGKIEDGDEIVQINYQTVVGWQHRTVLEHLREALPDVVLTVKKRPKHTKMFGQIYMQPYRLPSKKRNMAARWAAQMPSPRAAFLTLDTEQLATGGTGSAVPDPSKSLSSEKREVLTKANPVSSASDSDSSCSDIPTPTDPKLAAREIRLYYPKPRALLQRRNTICGCEYLSLKNSDLVVPSWHERKPGIGSPTNCDPGSPSIRDKSISFGYGLEMAARPTTCIGIAGDTSTDKARRMFHEARKLKQLTEDSQREFLVDRYKPGVSKVVRFDAKEDYVMKNEKFICNVENTILETFEPIPFADEGDEDA
chain 2: MGEETINSTQNKTRTKTTRPKAVYLWTVSDVLKWYRRHCGEYTQYEQLFAQHDITGRALLRITDSSLQRMGVTDNRDREAIWREIVKQRLKTDIMEIRDMERLNIY

Variants of: B1
Test: GST pull-down, immunoblot quantification; S2 cells; GST-HYP + RRKM co-expressed; anti-Flag (CNK) blot; parent: 1

| ratio to parent | Variant |
| --- | --- |
| 0.08 | chain 1 AYINIAEWTPDQVTDWIKGLDESMKGYLYEFSKQEIGGRALLNIRPYELENLGMLRIGHQEIVLEAVENLRNFHYHLKNDNLQFMALHVATAAKNLHRELARNHAESTKIDTRILHDITRTIATLKPLVGSLERTPFRKQEMYREYCGNVLKCGLELATIAHRDRFALQPVPAIRQSAERLENLANFVIQDISDPMVLQPASLNLVTLKKRESELGFNIESSYNGIHRVTDIKYNSPAHNSGKIEDGDRIRQINYQTVVGWQHRTVLEHLREALPDVVLTVKKRPKHTKMFGQIYMQPYRLPSKKRNMAARWAAQMPSPRAAFLTLDTEQLATGGTGSAVPDPSKSLSSEKREVLTKANPVSSASDSDSSCSDIPTPTDPKLAAREIRLYYPKPRALLQRRNTICGCEYLSLKNSDLVVPSWHERKPGIGSPTNCDPGSPSIRDKSISFGYGLEMAARPTTCIGIAGDTSTDKARRMFHEARKLKQLTEDSQREFLVDRYKPGVSKVVRFDAKEDYVMKNEKFICNVENTILETFEPIPFADEGDEDA [chain 1 E249R, chain 1 V251R] |
| 0.22 | chain 1 AYINIAEWTPDQVTDWIKGLDESMKGYLYEFSKQEIGGRALLNIRPYELENLGMLRIGHQEIVLEAVENLRNRHYHLKNDNLQFMALHVATAAKNLHRELARNHAESTKIDTRILHDITRTIATLKPLVGSLERTPFRKQEMYREYCGNVLKCGLELATIAHRDRFALQPVPAIRQSAERLENLANFVIQDISDPMVLQPASLNLVTLKKRESELGFNIESSYNGIHRVTDIKYNSPAHNSGKIEDGDRIVQINYQTVVGWQHRTVLEHLREALPDVVLTVKKRPKHTKMFGQIYMQPYRLPSKKRNMAARWAAQMPSPRAAFLTLDTEQLATGGTGSAVPDPSKSLSSEKREVLTKANPVSSASDSDSSCSDIPTPTDPKLAAREIRLYYPKPRALLQRRNTICGCEYLSLKNSDLVVPSWHERKPGIGSPTNCDPGSPSIRDKSISFGYGLEMAARPTTCIGIAGDTSTDKARRMFHEARKLKQLTEDSQREFLVDRYKPGVSKVVRFDAKEDYVMKNEKFICNVENTILETFEPIPFADEGDEDA [chain 1 F73R, chain 1 E249R] |

Variants of: B1
Test: GST pull-down, immunoblot quantification; S2 cells; only Flag-CNK2–549 and GST-HYP co-expressed; anti-Flag blot; parent: 1

| ratio to parent | Variant |
| --- | --- |
| 0.05 | chain 1 AYINIAEWTPDQVTDWIKGLDESMKGYLYEFSKQEIGGRALLNIRPYELENLGMLRIGHQEIVLEAVENLRNFHYHLKNDNLQFMALHVATAAKNLHRELARNHAESTKIDTRILHDITRTIATLKPLVGSLERTPFRKQEMYREYCGNVLKCGLELATIAHRDRFALQPVPAIRQSAERLENLANFVIQDISDPMVLQPASLNLVTLKKRESELGFNIESSYNGIHRVTDIKYNSPAHNSGKIEDGDRIRQINYQTVVGWQHRTVLEHLREALPDVVLTVKKRPKHTKMFGQIYMQPYRLPSKKRNMAARWAAQMPSPRAAFLTLDTEQLATGGTGSAVPDPSKSLSSEKREVLTKANPVSSASDSDSSCSDIPTPTDPKLAAREIRLYYPKPRALLQRRNTICGCEYLSLKNSDLVVPSWHERKPGIGSPTNCDPGSPSIRDKSISFGYGLEMAARPTTCIGIAGDTSTDKARRMFHEARKLKQLTEDSQREFLVDRYKPGVSKVVRFDAKEDYVMKNEKFICNVENTILETFEPIPFADEGDEDA [chain 1 E249R, chain 1 V251R] |
| 0.06 | chain 1 AYINIAEWTPDQVTDWIKGLDESMKGYLYEFSKQEIGGRALLNIRPYELENLGMLRIGHQEIVLEAVENLRNRHYHLKNDNLQFMALHVATAAKNLHRELARNHAESTKIDTRILHDITRTIATLKPLVGSLERTPFRKQEMYREYCGNVLKCGLELATIAHRDRFALQPVPAIRQSAERLENLANFVIQDISDPMVLQPASLNLVTLKKRESELGFNIESSYNGIHRVTDIKYNSPAHNSGKIEDGDRIVQINYQTVVGWQHRTVLEHLREALPDVVLTVKKRPKHTKMFGQIYMQPYRLPSKKRNMAARWAAQMPSPRAAFLTLDTEQLATGGTGSAVPDPSKSLSSEKREVLTKANPVSSASDSDSSCSDIPTPTDPKLAAREIRLYYPKPRALLQRRNTICGCEYLSLKNSDLVVPSWHERKPGIGSPTNCDPGSPSIRDKSISFGYGLEMAARPTTCIGIAGDTSTDKARRMFHEARKLKQLTEDSQREFLVDRYKPGVSKVVRFDAKEDYVMKNEKFICNVENTILETFEPIPFADEGDEDA [chain 1 F73R, chain 1 E249R] |

Variants of: B1
Test: GST pull-down, immunoblot quantification; S2 cells; GST-HYP + RRKM co-expressed; anti-Flag (CNK) blot; parent: 1
Remark: another data set of the same source

| ratio to parent | Variant |
| --- | --- |
| 0.73 | chain 1 AYINIAEWTPDQVTDWIKGLDESMKGYLYEFSKQEIGGRALLNIRPYELENLGMLRIGHQEIVLEAVENLRNFHYHLKNRNLQFMALHVATAAKNLHRELARNHAESTKIDTRILHDITRTIATLKPLVGSLERTPFRKQEMYREYCGNVLKCGLELATIAHRDRFALQPVPAIRQSAERLENLANFVIQDISDPMVLQPASLNLVTLKKRESELGFNIESSYNGIHRVTDIKYNSPAHNSGKIEDGDEIVQINYQTVVGWQHRTVLEHLREALPDVVLTVDKRPKHTKMFGQIYMQPYRLPSKKRNMAARWAAQMPSPRAAFLTLDTEQLATGGTGSAVPDPSKSLSSEKREVLTKANPVSSASDSDSSCSDIPTPTDPKLAAREIRLYYPKPRALLQRRNTICGCEYLSLKNSDLVVPSWHERKPGIGSPTNCDPGSPSIRDKSISFGYGLEMAARPTTCIGIAGDTSTDKARRMFHEARKLKQLTEDSQREFLVDRYKPGVSKVVRFDAKEDYVMKNEKFICNVENTILETFEPIPFADEGDEDA [chain 1 D80R, chain 1 K282D] |

Variants of: B1
Test: GST pull-down, immunoblot quantification; S2 cells; only Flag-CNK2–549 and GST-HYP co-expressed; anti-Flag blot; parent: 1
Remark: another data set of the same source

| ratio to parent | Variant |
| --- | --- |
| 1.03 | chain 1 AYINIAEWTPDQVTDWIKGLDESMKGYLYEFSKQEIGGRALLNIRPYELENLGMLRIGHQEIVLEAVENLRNFHYHLKNRNLQFMALHVATAAKNLHRELARNHAESTKIDTRILHDITRTIATLKPLVGSLERTPFRKQEMYREYCGNVLKCGLELATIAHRDRFALQPVPAIRQSAERLENLANFVIQDISDPMVLQPASLNLVTLKKRESELGFNIESSYNGIHRVTDIKYNSPAHNSGKIEDGDEIVQINYQTVVGWQHRTVLEHLREALPDVVLTVDKRPKHTKMFGQIYMQPYRLPSKKRNMAARWAAQMPSPRAAFLTLDTEQLATGGTGSAVPDPSKSLSSEKREVLTKANPVSSASDSDSSCSDIPTPTDPKLAAREIRLYYPKPRALLQRRNTICGCEYLSLKNSDLVVPSWHERKPGIGSPTNCDPGSPSIRDKSISFGYGLEMAARPTTCIGIAGDTSTDKARRMFHEARKLKQLTEDSQREFLVDRYKPGVSKVVRFDAKEDYVMKNEKFICNVENTILETFEPIPFADEGDEDA [chain 1 D80R, chain 1 K282D] |
